T1: α1antichymotrypsin (ACT) (human, UniProt P01011 24-423)
T1 construct: Used in excess in the incubation with PZ-N PSA
T1 sequence (looked up): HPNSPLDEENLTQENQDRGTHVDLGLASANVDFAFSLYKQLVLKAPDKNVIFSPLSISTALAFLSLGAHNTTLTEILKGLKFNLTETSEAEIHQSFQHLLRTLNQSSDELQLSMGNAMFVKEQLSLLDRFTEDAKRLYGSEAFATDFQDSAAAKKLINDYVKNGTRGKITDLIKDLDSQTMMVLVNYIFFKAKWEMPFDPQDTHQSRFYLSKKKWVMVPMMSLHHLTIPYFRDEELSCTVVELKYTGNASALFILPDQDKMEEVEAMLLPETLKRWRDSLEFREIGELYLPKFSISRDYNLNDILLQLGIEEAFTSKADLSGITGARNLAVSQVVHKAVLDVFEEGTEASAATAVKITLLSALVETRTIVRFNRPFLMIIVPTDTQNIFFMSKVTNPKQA

B1: [-1]pPSA (enzyme)
chain: not shown
B2: [+5]PSA (enzyme)
chain: not shown
notes: I equated '[+5]PSA' with 'PSA clipped after Gly4'; also called PSA clipped after Gly4
B3: [-2]pPSA (enzyme)
chain: not shown
notes: also called [-2]proPSA
B4: [-4]pPSA (enzyme)
chain: not shown
notes: also called [-4]proPSA

The target in this experiment is T1, α1antichymotrypsin (ACT). The experiment can be described thus: incubation with excess ACT, HIC-HPLC, N-terminal sequencing. The protocol: Figure 4: FIG. 4 is HIC-HPLC profile of the reaction mixture of PZ-N PSA incubated with excess ACT. […] Peak 2 is the residual excess active ACT. Peak 3 is the covalent PSA-ACT complex.
The original profile of this PZ-N sample is seen in FIG. 1. […] Peak 2 is the residual excess active ACT remaining after incubation. […] The [−2]pPSA is a truncated form of pPSA which contains the last two amino acids of the 7 amino acid pro leader peptide. PPSA is expressed with a heptapeptide pro leader sequence consisting of APLILSR. Thus, the [−2] pPSA contains the serine-arginine dipeptide on the N-terminal isoleucine of mature PSA. The minor peak eluting at 12 min contains the [−4]pPSA. The retention time of [−4]pPSA has been reported previously (10).
As for B1, the binding result is reported as “no binding”.

Take B2: the binding result is recorded as “no binding”.

As for B3, the binding result is reported as “no binding”.

With B4, the binding result is given as “no binding”.

The values above are taken from patent US6423503 (HYBRITECH, dated 2002).
